Source: PMC314469, “Protein Interaction Networks by Proteome Peptide Scanning” (PLoS Biology, 2004)
Blank lines part the entries; values can stand above or below the binder they belong to.

What was measured:
Assay in all cases: SPOT array
[1] = biological target: T1, Rvs167 SH3 (RV167_YEAST), P39743
T1 chain: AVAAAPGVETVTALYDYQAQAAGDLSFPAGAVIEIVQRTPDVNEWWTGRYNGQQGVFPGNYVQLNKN

[2] = biological target: T2, Boi1 SH3 (BOI1_YEAST), P38041
T2 chain: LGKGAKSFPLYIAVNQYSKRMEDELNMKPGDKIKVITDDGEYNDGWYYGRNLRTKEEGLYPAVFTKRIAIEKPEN

[3] = biological target: T3, Myo5 SH3 (MYO5_YEAST), Q04439
T3 chain: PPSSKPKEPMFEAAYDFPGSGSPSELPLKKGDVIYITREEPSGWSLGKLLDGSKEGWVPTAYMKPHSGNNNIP

[4] = biological target: T4, Yfr024 SH3 (LSB3_YEAST), P43603
T4 chain: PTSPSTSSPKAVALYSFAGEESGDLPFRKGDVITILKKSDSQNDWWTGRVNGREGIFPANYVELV

[5] = biological target: T5, Boi2 SH3 (BOI2_YEAST), P39969
T5 chain: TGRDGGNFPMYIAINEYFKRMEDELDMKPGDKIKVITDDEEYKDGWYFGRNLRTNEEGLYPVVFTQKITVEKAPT

[6] = biological target: T6, Yhr016c SH3 (YSC84_YEAST), P32793
T6 chain: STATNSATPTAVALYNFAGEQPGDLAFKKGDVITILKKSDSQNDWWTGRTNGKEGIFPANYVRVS

[7] = biological target: Sho1 SH3 (SHO1_YEAST), P40073
Sho1 SH3 (SHO1_YEAST), P40073, sequence (P40073 295-366): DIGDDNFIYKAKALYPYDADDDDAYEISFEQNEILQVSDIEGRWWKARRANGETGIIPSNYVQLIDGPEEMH

normalised SPOT signal, Boehringer light units (BLU); mean over the file's lines of this peptide [1]: 94.1 | normalised SPOT signal, Boehringer light units (BLU); mean over the file's lines of this peptide [2]: 1280 | normalised SPOT signal, Boehringer light units (BLU); mean over the file's lines of this peptide [3]: 183 | normalised SPOT signal, Boehringer light units (BLU); mean over the file's lines of this peptide [4]: 1150 | normalised SPOT signal, Boehringer light units (BLU); mean over the file's lines of this peptide [5]: 40.3 | normalised SPOT signal, Boehringer light units (BLU); mean over the file's lines of this peptide [6]: 145 | normalised SPOT signal, Boehringer light units (BLU); mean over the file's lines of this peptide [7]: 9.9
B1: YJR035W 269-282 (peptide)
chain: PEWRRPHPNIPDAK

normalised SPOT signal, Boehringer light units (BLU); mean over the file's lines of this peptide [1]: 147 | normalised SPOT signal, Boehringer light units (BLU); mean over the file's lines of this peptide [2]: 65 | normalised SPOT signal, Boehringer light units (BLU); mean over the file's lines of this peptide [3]: 974 | normalised SPOT signal, Boehringer light units (BLU); mean over the file's lines of this peptide [4]: 116 | normalised SPOT signal, Boehringer light units (BLU); mean over the file's lines of this peptide [5]: 0 | normalised SPOT signal, Boehringer light units (BLU); mean over the file's lines of this peptide [6]: 27.7 | normalised SPOT signal, Boehringer light units (BLU); mean over the file's lines of this peptide [7]: 97.2
B2: YMR156C 9-22 (peptide)
chain: PFLIKFTPKFPQSI

normalised SPOT signal, Boehringer light units (BLU); mean over the file's lines of this peptide [1]: 176 | normalised SPOT signal, Boehringer light units (BLU); mean over the file's lines of this peptide [2]: 0 | normalised SPOT signal, Boehringer light units (BLU); mean over the file's lines of this peptide [3]: 90 | normalised SPOT signal, Boehringer light units (BLU); mean over the file's lines of this peptide [4]: 12.3 | normalised SPOT signal, Boehringer light units (BLU); mean over the file's lines of this peptide [5]: 16.6 | normalised SPOT signal, Boehringer light units (BLU); mean over the file's lines of this peptide [6]: 16.9 | normalised SPOT signal, Boehringer light units (BLU); mean over the file's lines of this peptide [7]: 40.6
B3: YHR165C 347-360 (peptide)
chain: PGGPKFEPLYPREE

normalised SPOT signal, Boehringer light units (BLU); mean over the file's lines of this peptide [1]: 93.5 | normalised SPOT signal, Boehringer light units (BLU); mean over the file's lines of this peptide [2]: 310 | normalised SPOT signal, Boehringer light units (BLU); mean over the file's lines of this peptide [3]: 76.2 | normalised SPOT signal, Boehringer light units (BLU); mean over the file's lines of this peptide [4]: 163 | normalised SPOT signal, Boehringer light units (BLU); mean over the file's lines of this peptide [5]: 30.9 | normalised SPOT signal, Boehringer light units (BLU); mean over the file's lines of this peptide [6]: 46.5 | normalised SPOT signal, Boehringer light units (BLU); mean over the file's lines of this peptide [7]: 57.6
B4: YMR067C 383-396 (peptide)
chain: NTINKSNPQGPSDN

normalised SPOT signal, Boehringer light units (BLU); mean over the file's lines of this peptide [1]: 16.6 | normalised SPOT signal, Boehringer light units (BLU); mean over the file's lines of this peptide [2]: 41 | normalised SPOT signal, Boehringer light units (BLU); mean over the file's lines of this peptide [3]: 280 | normalised SPOT signal, Boehringer light units (BLU); mean over the file's lines of this peptide [4]: 33.6 | normalised SPOT signal, Boehringer light units (BLU); mean over the file's lines of this peptide [5]: 33.2 | normalised SPOT signal, Boehringer light units (BLU); mean over the file's lines of this peptide [6]: 12 | normalised SPOT signal, Boehringer light units (BLU); mean over the file's lines of this peptide [7]: 2.8
B5: YBR056W 255-268 (peptide)
chain: NTVEKLQPGLPVII

normalised SPOT signal, Boehringer light units (BLU); mean over the file's lines of this peptide [1]: 62.5 | normalised SPOT signal, Boehringer light units (BLU); mean over the file's lines of this peptide [2]: 1110 | normalised SPOT signal, Boehringer light units (BLU); mean over the file's lines of this peptide [3]: 154 | normalised SPOT signal, Boehringer light units (BLU); mean over the file's lines of this peptide [4]: 116 | normalised SPOT signal, Boehringer light units (BLU); mean over the file's lines of this peptide [5]: 62.6 | normalised SPOT signal, Boehringer light units (BLU); mean over the file's lines of this peptide [6]: 311 | normalised SPOT signal, Boehringer light units (BLU); mean over the file's lines of this peptide [7]: 75.6
B6: YPR029C 360-373 (peptide)
chain: NTLLKVVPQEPTAV

normalised SPOT signal, Boehringer light units (BLU); mean over the file's lines of this peptide [1]: 80.9 | normalised SPOT signal, Boehringer light units (BLU); mean over the file's lines of this peptide [2]: 618 | normalised SPOT signal, Boehringer light units (BLU); mean over the file's lines of this peptide [3]: 253 | normalised SPOT signal, Boehringer light units (BLU); mean over the file's lines of this peptide [4]: 89.7 | normalised SPOT signal, Boehringer light units (BLU); mean over the file's lines of this peptide [5]: 0 | normalised SPOT signal, Boehringer light units (BLU); mean over the file's lines of this peptide [6]: 31.8 | normalised SPOT signal, Boehringer light units (BLU); mean over the file's lines of this peptide [7]: 69.5
B7: YOR231W 8-21 (peptide)
chain: PESAKSNPNSPRLK

normalised SPOT signal, Boehringer light units (BLU); mean over the file's lines of this peptide [1]: 110 | normalised SPOT signal, Boehringer light units (BLU); mean over the file's lines of this peptide [2]: 150 | normalised SPOT signal, Boehringer light units (BLU); mean over the file's lines of this peptide [3]: 236 | normalised SPOT signal, Boehringer light units (BLU); mean over the file's lines of this peptide [4]: 33.4 | normalised SPOT signal, Boehringer light units (BLU); mean over the file's lines of this peptide [5]: 11 | normalised SPOT signal, Boehringer light units (BLU); mean over the file's lines of this peptide [6]: 27.4 | normalised SPOT signal, Boehringer light units (BLU); mean over the file's lines of this peptide [7]: 25.1
B8: YER167W 325-338 (peptide)
chain: PHFAKHSPDSPRTS

normalised SPOT signal, Boehringer light units (BLU); mean over the file's lines of this peptide [1]: 36.2 | normalised SPOT signal, Boehringer light units (BLU); mean over the file's lines of this peptide [2]: 383 | normalised SPOT signal, Boehringer light units (BLU); mean over the file's lines of this peptide [3]: 580 | normalised SPOT signal, Boehringer light units (BLU); mean over the file's lines of this peptide [4]: 565 | normalised SPOT signal, Boehringer light units (BLU); mean over the file's lines of this peptide [5]: 32.8 | normalised SPOT signal, Boehringer light units (BLU); mean over the file's lines of this peptide [6]: 62 | normalised SPOT signal, Boehringer light units (BLU); mean over the file's lines of this peptide [7]: 483
B9: YNL106C 1153-1166 (peptide)
chain: PSKKKSKPKVPAKN

normalised SPOT signal, Boehringer light units (BLU); mean over the file's lines of this peptide [1]: 585 | normalised SPOT signal, Boehringer light units (BLU); mean over the file's lines of this peptide [2]: 529 | normalised SPOT signal, Boehringer light units (BLU); mean over the file's lines of this peptide [3]: 649 | normalised SPOT signal, Boehringer light units (BLU); mean over the file's lines of this peptide [4]: 624 | normalised SPOT signal, Boehringer light units (BLU); mean over the file's lines of this peptide [5]: 67.8 | normalised SPOT signal, Boehringer light units (BLU); mean over the file's lines of this peptide [6]: 91.6 | normalised SPOT signal, Boehringer light units (BLU); mean over the file's lines of this peptide [7]: 59
B10: YKR093W 410-423 (peptide)
chain: PFIRRYTPLKPITK

normalised SPOT signal, Boehringer light units (BLU); mean over the file's lines of this peptide [1]: 34.3 | normalised SPOT signal, Boehringer light units (BLU); mean over the file's lines of this peptide [2]: 158 | normalised SPOT signal, Boehringer light units (BLU); mean over the file's lines of this peptide [3]: 164 | normalised SPOT signal, Boehringer light units (BLU); mean over the file's lines of this peptide [4]: 93.9 | normalised SPOT signal, Boehringer light units (BLU); mean over the file's lines of this peptide [5]: 0.9 | normalised SPOT signal, Boehringer light units (BLU); mean over the file's lines of this peptide [6]: 5.1 | normalised SPOT signal, Boehringer light units (BLU); mean over the file's lines of this peptide [7]: 16400
B11: YPL137C 1165-1178 (peptide)
chain: PANPKILPKIPSGA

normalised SPOT signal, Boehringer light units (BLU); mean over the file's lines of this peptide [1]: 27.8 | normalised SPOT signal, Boehringer light units (BLU); mean over the file's lines of this peptide [2]: 114 | normalised SPOT signal, Boehringer light units (BLU); mean over the file's lines of this peptide [3]: 192 | normalised SPOT signal, Boehringer light units (BLU); mean over the file's lines of this peptide [4]: 268 | normalised SPOT signal, Boehringer light units (BLU); mean over the file's lines of this peptide [5]: 10.6 | normalised SPOT signal, Boehringer light units (BLU); mean over the file's lines of this peptide [6]: 4.6 | normalised SPOT signal, Boehringer light units (BLU); mean over the file's lines of this peptide [7]: 69.6
B12: YDR195W 471-484 (peptide)
chain: PDLNKRPPREPIEF

normalised SPOT signal, Boehringer light units (BLU); mean over the file's lines of this peptide [1]: 31.5 | normalised SPOT signal, Boehringer light units (BLU); mean over the file's lines of this peptide [2]: 685 | normalised SPOT signal, Boehringer light units (BLU); mean over the file's lines of this peptide [3]: 125 | normalised SPOT signal, Boehringer light units (BLU); mean over the file's lines of this peptide [4]: 69.3 | normalised SPOT signal, Boehringer light units (BLU); mean over the file's lines of this peptide [5]: 0 | normalised SPOT signal, Boehringer light units (BLU); mean over the file's lines of this peptide [6]: 14.6 | normalised SPOT signal, Boehringer light units (BLU); mean over the file's lines of this peptide [7]: 54.8
B13: YLL021W 1081-1094 (peptide)
chain: PELAKNSPLAPIKK

normalised SPOT signal, Boehringer light units (BLU); mean over the file's lines of this peptide [1]: 121 | normalised SPOT signal, Boehringer light units (BLU); mean over the file's lines of this peptide [2]: 1780 | normalised SPOT signal, Boehringer light units (BLU); mean over the file's lines of this peptide [3]: 156 | normalised SPOT signal, Boehringer light units (BLU); mean over the file's lines of this peptide [4]: 63.4 | normalised SPOT signal, Boehringer light units (BLU); mean over the file's lines of this peptide [5]: 29.5 | normalised SPOT signal, Boehringer light units (BLU); mean over the file's lines of this peptide [6]: 310 | normalised SPOT signal, Boehringer light units (BLU); mean over the file's lines of this peptide [7]: 126
B14: YGR123C 104-117 (peptide)
chain: NVLLKAKPNDPAAT

normalised SPOT signal, Boehringer light units (BLU); mean over the file's lines of this peptide [1]: 60.5 | normalised SPOT signal, Boehringer light units (BLU); mean over the file's lines of this peptide [2]: 88.2 | normalised SPOT signal, Boehringer light units (BLU); mean over the file's lines of this peptide [3]: 204 | normalised SPOT signal, Boehringer light units (BLU); mean over the file's lines of this peptide [4]: 84.5 | normalised SPOT signal, Boehringer light units (BLU); mean over the file's lines of this peptide [5]: 29.7 | normalised SPOT signal, Boehringer light units (BLU); mean over the file's lines of this peptide [6]: 211 | normalised SPOT signal, Boehringer light units (BLU); mean over the file's lines of this peptide [7]: 42.7
B15: YLR142W 90-103 (peptide)
chain: NTIIKLFPYIPIPV

normalised SPOT signal, Boehringer light units (BLU); mean over the file's lines of this peptide [1]: 129 | normalised SPOT signal, Boehringer light units (BLU); mean over the file's lines of this peptide [2]: 58.5 | normalised SPOT signal, Boehringer light units (BLU); mean over the file's lines of this peptide [3]: 318 | normalised SPOT signal, Boehringer light units (BLU); mean over the file's lines of this peptide [4]: 323 | normalised SPOT signal, Boehringer light units (BLU); mean over the file's lines of this peptide [5]: 59.3 | normalised SPOT signal, Boehringer light units (BLU); mean over the file's lines of this peptide [6]: 178 | normalised SPOT signal, Boehringer light units (BLU); mean over the file's lines of this peptide [7]: 70
B16: YPL055C 201-214 (peptide)
chain: NYHHRETPPPPPSN
